This note sets out measurements from patent publication US20160324962A1 (AstraZeneca / MedImmune, published 2016).

In assay [1] the target is T1, human insulin-like growth factor 1 (IGF-1) (human, UniProt P05019 49-118). Put plainly: cell-based or functional assay.
Assay [2] concerns the target T2, human insulin-like growth factor 2 (IGF-2) (human, UniProt P01344 25-91). Put plainly: cell-based or functional assay.
The target in assay [3] is T1, human insulin-like growth factor 1 …. Briefly: method not stated; affinity quoted in Example 3.
Assay [4] has as its target T2, human insulin-like growth factor 2 …. Briefly: method not stated; affinity quoted in Example 3.

T1 sequence (P05019 49-118 limits assumed): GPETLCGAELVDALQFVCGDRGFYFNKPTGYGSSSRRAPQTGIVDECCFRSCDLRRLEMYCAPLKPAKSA
T2 sequence (P01344 25-91 limits assumed): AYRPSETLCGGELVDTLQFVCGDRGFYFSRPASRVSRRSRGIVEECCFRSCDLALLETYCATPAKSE

B1: MEDI-573 (antibody, human IgG2, lambda, V domains shown)
VH: QVQLVQSGAEVKKPGASVKVSCKASGYTFTSYDINWVRQATGQGLEWMGWMNPNSGNTGYAQKFQGRVTMTRNTSISTAYMELSSLRSEDTAVYYCARDPYYYYYGMDVWGQGTTVTVSS
VL: QSVLTQPPSVSAAPGQKVTISCSGSSSNIENNHVSWYQQLPGTAPKLLIYDNNKRPSGIPDRFSGSKSGTSATLGITGLQTGDEADYYCETWDTSLSAGRVFGGGTKLTVLG
notes: also called mAb 7.159.2; anti-IGF antibody
For orientation: Kd means the concentration at which binding is half-saturated. Regarding B1, in assay [1], the “IC50 (µM), inhibition of IGF-1-stimulated proliferation of MG-63 cells (CellTiter-Glo)” value came out at 223 µM; the “IC50 (µM), inhibition of IGF-1-stimulated proliferation of RD-ES cells (CellTiter-Glo)” value turned out to be 40 µM; the “IC50 (µM), inhibition of IGF-1-stimulated proliferation of SAOS2 cells (CellTiter-Glo)” value worked out at 177 µM; the “IC50 (µM), inhibition of IGF-1-stimulated proliferation of SK-ES-1 cells (CellTiter-Glo)” value is 20 µM. In assay [2], the “IC50 (µM), inhibition of IGF-2-stimulated proliferation of MG-63 cells (CellTiter-Glo)” value worked out at 5.8 µM; the “IC50 (µM), inhibition of IGF-2-stimulated proliferation of RD-ES cells (CellTiter-Glo)” value is 2 µM; the “IC50 (µM), inhibition of IGF-2-stimulated proliferation of SAOS2 cells (CellTiter-Glo)” value worked out at 5.3 µM; the “IC50 (µM), inhibition of IGF-2-stimulated proliferation of SK-ES-1 cells (CellTiter-Glo)” value was 20 µM. The molecule further had a Kd in assay [3] of 0.000294 µM. In addition, binding in assay [4] was characterised by a dissociation constant (Kd) of 2 pM.
